Results on one molecule are retold here after US20260125478A1 (VIELA BIO, published 2026).

In assay [1] the target is T1, human FcγRIIA 131R on blood cells of 131R/R donors (human, UniProt P12318 34-317).
T1 sequence: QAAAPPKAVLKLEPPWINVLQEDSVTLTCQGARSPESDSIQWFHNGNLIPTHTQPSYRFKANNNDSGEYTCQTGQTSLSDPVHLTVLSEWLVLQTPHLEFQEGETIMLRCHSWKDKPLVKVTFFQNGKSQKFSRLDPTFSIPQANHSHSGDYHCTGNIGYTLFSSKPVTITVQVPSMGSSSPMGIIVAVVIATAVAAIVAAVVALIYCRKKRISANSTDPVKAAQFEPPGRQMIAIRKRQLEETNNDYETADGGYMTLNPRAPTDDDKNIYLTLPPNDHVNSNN
Kind of assay: cell-based or functional assay.

The target of assay [2] is cynomolgus monkey FcγRIIA on blood cells (cynomolgus monkey). Kind of assay: cell-based or functional assay.
Assay [3] deals with T2, human FcγRIIA on primary human cells (neutrophils; sorted CD14+ monocytes), allotype not stated (human, UniProt P12318 34-317).
T2 construct: whole, on cells; also called human FcγRIIA at the neutrophil surface; FcγRIIA-expressing neutrophils
T2 sequence (looked up): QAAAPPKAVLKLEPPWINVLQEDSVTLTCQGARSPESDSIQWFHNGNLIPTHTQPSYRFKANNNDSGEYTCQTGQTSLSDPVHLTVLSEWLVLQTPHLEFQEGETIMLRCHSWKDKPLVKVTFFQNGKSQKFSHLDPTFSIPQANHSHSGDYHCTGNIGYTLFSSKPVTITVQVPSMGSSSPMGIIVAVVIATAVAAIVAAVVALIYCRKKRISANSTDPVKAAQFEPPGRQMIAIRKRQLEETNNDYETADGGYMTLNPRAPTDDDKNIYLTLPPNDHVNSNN
Kind of assay: flow cytometry, fluorescently labelled antibody on human neutrophils, without IVIG. The procedure:
(§1) Human neutrophils were re-suspended in blocking buffer [phosphate-buffered saline (PBS) supplemented with 10% fetal bovine serum] and transferred to round-bottom 96-well culture plates (0.5×10^6 cells/well). […] After incubation, cells were washed with cold PBS and the mean fluorescence intensity (MFI) of cell-bound antibodies was assessed by flow cytometry using an LSRII (BD; Franklin Lakes, NJ). The EC₅₀ for binding was calculated using a non-linear fit equation in GraphPad Prism 6 software.

In assay [4] the target is T3, recombinant FcγRIIA-131H/H allotype (ELISA coat, generated at MedImmune) (human, UniProt P12318 34-217, limits assumed).
T3 construct: also called human FcγRIIA; CD32A
T3 sequence (looked up): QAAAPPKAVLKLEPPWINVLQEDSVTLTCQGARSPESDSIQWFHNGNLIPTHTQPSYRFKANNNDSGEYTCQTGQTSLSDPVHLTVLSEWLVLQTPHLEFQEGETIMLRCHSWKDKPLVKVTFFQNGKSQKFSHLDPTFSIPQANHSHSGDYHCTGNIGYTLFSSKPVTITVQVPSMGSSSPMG
The experiment in a line: ELISA on plate-coated FcγRIIA-131H/H (2 µg/ml), detection with goat anti-human Fc-HRP. On the procedure: Plates were washed five times with 200 μl of wash buffer (PBS containing 0.1% Tween 20), blocked with blocking buffer containing 5% milk in PBS for 1 hour at room temperature, and washed five additional times with wash buffer. Three-fold serial dilutions of the test antibody or control antibody (R347-Tm) were added to wells in duplicate. Plates were incubated for 2 hours at room temperature, and washed five times with wash buffer. Binding of the antibodies to the FcγRs was detected by adding 50 μl of goat anti-human Fc-HRP (Jackson ImmunoResearch Laboratories, PA) to the wells and incubating for 1 hour at room temperature, washing 10 times, and adding 50 μl TMB substrate (Pierce Biotechnology, MA). The color reaction was stopped with 50 μl 0.2M […] and the absorbance was measured using a spectrophotometer (Molecular Devices, CA) at […].
Background: An ELISA detects its analyte on a solid surface through an enzyme-linked reagent.

Assay [5] concerns the target T2, human FcγRIIA on primary human cells …. The experiment in a line: flow cytometry, fluorescently labelled antibody on human neutrophils, 30 min at 4 °C, without IVIG. The procedure: as §1
Assay [6] has as its target T4, Human CD32A 131R extracellular domain, 6xHis_Flag tagged (human, UniProt P12318 34-217).
T4 construct: also called Hu CD32A_131Arg; human CD32A_131 Arg
T4 chain: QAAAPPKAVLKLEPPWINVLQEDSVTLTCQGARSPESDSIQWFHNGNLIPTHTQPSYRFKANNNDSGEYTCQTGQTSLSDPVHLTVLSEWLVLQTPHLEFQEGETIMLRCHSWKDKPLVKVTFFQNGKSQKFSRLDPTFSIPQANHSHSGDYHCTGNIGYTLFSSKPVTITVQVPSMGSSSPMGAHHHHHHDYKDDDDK
Kind of assay: Biacore; IgG1-TM captured on a Protein G chip, CD32A as analyte, 1:1 Langmuir fit, average of two experiments.

Assay [7] has as its target T5, Human CD32A 131H extracellular domain, 6xHis_Flag tagged (human, UniProt P12318 34-217).
T5 construct: Used unlabelled as the analyte in Biacore; also called Hu CD32A_131His
T5 sequence: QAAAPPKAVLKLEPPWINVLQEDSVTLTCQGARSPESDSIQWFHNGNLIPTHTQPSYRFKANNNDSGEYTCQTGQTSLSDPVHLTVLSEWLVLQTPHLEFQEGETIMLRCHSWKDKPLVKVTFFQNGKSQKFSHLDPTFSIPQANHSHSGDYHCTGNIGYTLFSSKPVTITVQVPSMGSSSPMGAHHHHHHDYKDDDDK
The assay is described as above.

Assay [8] deals with T6, cynomolgus CD32A version 3, 6xHis tagged (cynomolgus monkey).
T6 construct: also called Cyno CD32A; cyno CD32A (version 3)
T6 chain: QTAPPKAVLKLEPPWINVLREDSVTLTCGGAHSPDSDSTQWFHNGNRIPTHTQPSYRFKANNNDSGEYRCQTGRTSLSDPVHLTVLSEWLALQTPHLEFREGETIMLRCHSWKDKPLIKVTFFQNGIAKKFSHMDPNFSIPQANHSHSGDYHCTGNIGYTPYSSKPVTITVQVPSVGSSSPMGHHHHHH
The assay is described as above.

For assay [9], the target named is T2, human FcγRIIA on primary human cells …. The experiment in a line: flow cytometry, fluorescently labelled antibody on human neutrophils, in the presence of 10 mg/mL IVIG as competitor. The procedure: as §1
On the technique in general: A flow cytometer gives signals particle by particle.

B1: 32LO0352 (MEDI9600) (antibody, human IgG1, V domains shown)
VH: QVQLVQSGAEVKKPGASVKVSCKASGYTFTNYGMNWVRQAPGQRLEWMGWLNTYTGESWYPDDFKGRVTITRDTSASTAYMELSSLRSEDTAVYYCARGDYGYDDPLDYWGQGTLVTVSS
VL: DIVMTQSPLSLPVTPGEPASISCRSSKSLLHTNQNTYLHWFLQKPGQSPQLLIYRMSVLASGVPDRFSGSGSGTDFTLKISRVEAEDVGVYYCMQHLEYPLTFGQGTKLEIK
notes: Fluorescently labelled in the neutrophil flow cytometry assay and Alexa 647 labelled for confocal microscopy; also called clone 32LO0352; CD32LO0352
Usually EC50 stands for the concentration needed to bring the measured effect to its halfway point. What is called EC50 (read off the curve) is the concentration giving half of the maximal effect. As usually defined, the Kd is a measure of binding affinity in units of concentration. The term koff denotes the rate constant with which the complex falls apart. Broadly, the kon is a measure of how fast the partners come together. As to B1, in [1], the “IC50 of the loss of surface FcγRIIA (M.F.I of IV.3-Alexa 647) on monocytes, whole blood, 2 h at 37 °C” value is 0.0593 nM. Moreover, the “IC50 of the loss of surface FcγRIIA (M.F.I of IV.3-Alexa 647) on cynomolgus monocytes, whole blood, 2 h at 37 °C” value in assay [2] is 1.09 nM. Further, the EC50 in assay [3] was determined as 0.03 nM; in assay [5] it was 0.0293 nM; in assay [9], 3.34 nM. Further, the “EC50 (read off the curve)” value in assay [4] is roughly 5 ng/mL. Moreover, the results for the Kd in [6], in assay [7] and in assay [8] were 0.15 nM, 0.13 nM and 31.3 nM, respectively. Moreover, the koff in [6] came out at 0.000735 s⁻¹; in assay [7], 0.000337 s⁻¹; in [8] it was 0.0904 s⁻¹. For the same molecule, the kon worked out at 4.98e+06 M⁻¹ s⁻¹ in [6], 2.6e+06 M⁻¹ s⁻¹ in assay [7] and 2.88e+06 M⁻¹ s⁻¹ in assay [8].
